Data on five sequences can be found in US20150258192A1, “COMPOSITIONS AND METHODS FOR PREVENTING OR TREATING CHRONIC LUNG ALLOGRAFT DYSFUNCTION (CLAD) AND IDIOPATHIC PULMONARY FIBROSIS (IPF)” (priority 2014, published 2015).

Holding throughout (assay): Kinase Profiling Assay
Common to all, as to format: biochemical
Holding throughout (conditions): peptide 100 μM

The target of one assay is T1, Mer(h) (Homo sapiens, UniProt Q12866).
T1 construct: purchased Millipore
T1 sequence (Q12866 21-999): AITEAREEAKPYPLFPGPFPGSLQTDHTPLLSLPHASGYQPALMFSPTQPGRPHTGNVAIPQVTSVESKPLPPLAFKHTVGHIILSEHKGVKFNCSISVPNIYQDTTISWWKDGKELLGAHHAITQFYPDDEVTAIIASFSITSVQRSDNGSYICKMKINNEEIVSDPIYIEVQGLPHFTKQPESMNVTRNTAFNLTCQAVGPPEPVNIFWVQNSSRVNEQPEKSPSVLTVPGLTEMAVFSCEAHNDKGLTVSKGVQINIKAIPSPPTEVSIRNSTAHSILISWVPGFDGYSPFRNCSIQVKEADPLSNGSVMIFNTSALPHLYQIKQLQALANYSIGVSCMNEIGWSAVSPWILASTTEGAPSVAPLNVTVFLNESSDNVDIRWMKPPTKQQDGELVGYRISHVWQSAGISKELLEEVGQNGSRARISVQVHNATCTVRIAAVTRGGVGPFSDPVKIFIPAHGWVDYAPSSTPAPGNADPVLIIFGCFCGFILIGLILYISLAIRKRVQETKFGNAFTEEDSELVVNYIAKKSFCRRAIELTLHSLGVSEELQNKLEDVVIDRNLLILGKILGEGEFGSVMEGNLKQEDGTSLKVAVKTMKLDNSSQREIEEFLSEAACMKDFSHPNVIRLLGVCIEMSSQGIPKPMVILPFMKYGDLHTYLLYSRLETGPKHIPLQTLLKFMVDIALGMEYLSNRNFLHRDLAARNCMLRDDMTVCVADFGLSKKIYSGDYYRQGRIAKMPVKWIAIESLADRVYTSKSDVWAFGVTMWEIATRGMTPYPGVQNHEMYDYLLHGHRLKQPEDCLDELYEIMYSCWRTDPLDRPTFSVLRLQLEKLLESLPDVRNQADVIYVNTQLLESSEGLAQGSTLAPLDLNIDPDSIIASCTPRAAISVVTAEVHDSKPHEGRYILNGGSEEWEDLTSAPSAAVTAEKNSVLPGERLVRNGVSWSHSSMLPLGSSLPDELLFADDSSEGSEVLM
In outline:
(§1)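 Duplicate wells; [radiolabeled] ATP phosphate onto cationic substrate; filter capture (negatively charged membrane); scintillation count; % of 100% activity control. Selectivity screen of MK2 peptide inhibitors, 266 human kinases.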

Another assay has as its target T2, GSK3α(h) (Homo sapiens, UniProt P49840).
T2 construct: purchased Millipore
In outline:
as §1

The next assay concerns the target T3, PRAK(h) (Homo sapiens, UniProt Q8IW41).
T3 sequence (Q8IW41 1-473): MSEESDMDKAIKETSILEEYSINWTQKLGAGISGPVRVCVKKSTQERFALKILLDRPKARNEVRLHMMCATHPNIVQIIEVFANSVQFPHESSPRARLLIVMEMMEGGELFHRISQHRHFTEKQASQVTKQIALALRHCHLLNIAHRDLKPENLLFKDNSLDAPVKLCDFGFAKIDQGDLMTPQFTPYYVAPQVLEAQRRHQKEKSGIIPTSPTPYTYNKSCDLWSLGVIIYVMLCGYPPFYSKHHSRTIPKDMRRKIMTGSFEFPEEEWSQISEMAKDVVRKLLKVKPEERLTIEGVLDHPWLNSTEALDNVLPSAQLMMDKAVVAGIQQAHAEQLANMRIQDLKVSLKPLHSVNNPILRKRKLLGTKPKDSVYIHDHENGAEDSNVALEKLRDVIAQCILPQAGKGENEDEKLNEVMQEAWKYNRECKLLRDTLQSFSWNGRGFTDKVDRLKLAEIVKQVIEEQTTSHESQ
Put shortly: as §1

The target in the next assay is T4, LOK(h) (Homo sapiens, UniProt O94804).
T4 construct: purchased Millipore
T4 sequence (O94804 whole entry): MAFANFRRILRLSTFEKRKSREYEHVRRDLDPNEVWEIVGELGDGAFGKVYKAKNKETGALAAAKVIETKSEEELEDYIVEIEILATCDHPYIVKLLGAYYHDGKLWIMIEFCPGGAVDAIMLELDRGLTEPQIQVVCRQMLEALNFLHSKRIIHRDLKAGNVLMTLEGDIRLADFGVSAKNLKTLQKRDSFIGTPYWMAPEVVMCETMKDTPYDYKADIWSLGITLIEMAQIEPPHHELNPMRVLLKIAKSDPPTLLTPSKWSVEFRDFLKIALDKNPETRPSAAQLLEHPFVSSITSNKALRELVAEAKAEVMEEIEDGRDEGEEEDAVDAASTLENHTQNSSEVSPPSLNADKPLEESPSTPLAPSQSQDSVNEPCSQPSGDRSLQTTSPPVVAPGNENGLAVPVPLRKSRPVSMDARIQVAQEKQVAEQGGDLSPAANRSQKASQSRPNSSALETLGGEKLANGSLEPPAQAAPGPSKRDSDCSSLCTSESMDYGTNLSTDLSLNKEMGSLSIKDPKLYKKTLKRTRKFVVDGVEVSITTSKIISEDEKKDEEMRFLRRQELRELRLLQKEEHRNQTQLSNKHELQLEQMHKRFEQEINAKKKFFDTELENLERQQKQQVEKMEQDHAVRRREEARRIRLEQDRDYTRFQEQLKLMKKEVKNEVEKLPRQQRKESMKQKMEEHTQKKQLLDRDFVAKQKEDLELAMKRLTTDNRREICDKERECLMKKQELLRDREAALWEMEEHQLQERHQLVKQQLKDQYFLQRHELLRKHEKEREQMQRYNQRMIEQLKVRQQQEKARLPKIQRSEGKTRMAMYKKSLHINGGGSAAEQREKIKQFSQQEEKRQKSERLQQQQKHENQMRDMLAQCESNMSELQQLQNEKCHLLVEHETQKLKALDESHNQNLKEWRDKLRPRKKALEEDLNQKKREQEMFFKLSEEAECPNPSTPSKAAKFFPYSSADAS
In outline: as §1

In the next assay the target is T5, Hck(h) activated (Homo sapiens, UniProt P08631).
T5 construct: purchased Millipore
T5 sequence (P08631 whole entry): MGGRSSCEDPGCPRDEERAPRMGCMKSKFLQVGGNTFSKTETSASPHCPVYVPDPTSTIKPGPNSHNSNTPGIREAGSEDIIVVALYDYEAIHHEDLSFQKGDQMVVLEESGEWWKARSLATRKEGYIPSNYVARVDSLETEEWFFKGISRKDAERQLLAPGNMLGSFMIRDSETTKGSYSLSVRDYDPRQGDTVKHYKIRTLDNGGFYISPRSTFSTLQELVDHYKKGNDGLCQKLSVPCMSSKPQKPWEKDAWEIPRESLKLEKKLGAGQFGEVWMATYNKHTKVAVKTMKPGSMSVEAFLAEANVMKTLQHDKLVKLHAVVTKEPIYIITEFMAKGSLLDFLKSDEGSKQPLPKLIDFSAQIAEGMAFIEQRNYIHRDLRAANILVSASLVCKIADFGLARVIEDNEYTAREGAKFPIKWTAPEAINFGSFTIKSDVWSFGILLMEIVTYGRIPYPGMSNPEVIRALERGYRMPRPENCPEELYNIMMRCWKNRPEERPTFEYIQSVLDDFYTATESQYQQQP
Put shortly: as §1

Another assay addresses cKit(D816H)(h) (Homo sapiens, UniProt P10721, D816H). Put shortly:
as §1

The next assay has as its target Tie2(Y897S)(h) (Homo sapiens, UniProt Q02763, Y897S). In outline:
as §1

No end group written: not given here.

T2 sequence (P49840 whole entry): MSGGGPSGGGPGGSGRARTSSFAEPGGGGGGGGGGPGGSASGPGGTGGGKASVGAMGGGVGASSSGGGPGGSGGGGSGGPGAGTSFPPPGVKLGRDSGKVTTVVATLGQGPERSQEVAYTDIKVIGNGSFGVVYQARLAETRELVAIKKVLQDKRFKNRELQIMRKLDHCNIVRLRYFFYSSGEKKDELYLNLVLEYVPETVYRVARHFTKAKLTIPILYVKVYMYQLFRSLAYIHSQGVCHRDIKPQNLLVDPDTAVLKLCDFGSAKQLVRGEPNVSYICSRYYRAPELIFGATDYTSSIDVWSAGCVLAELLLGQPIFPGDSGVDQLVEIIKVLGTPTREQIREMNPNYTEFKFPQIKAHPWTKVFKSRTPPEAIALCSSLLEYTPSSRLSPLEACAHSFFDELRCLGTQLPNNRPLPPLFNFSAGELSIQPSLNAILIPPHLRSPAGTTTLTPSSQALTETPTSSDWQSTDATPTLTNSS
Chain of Tie2(Y897S)(h) (Q02763 23-1124 Y897S): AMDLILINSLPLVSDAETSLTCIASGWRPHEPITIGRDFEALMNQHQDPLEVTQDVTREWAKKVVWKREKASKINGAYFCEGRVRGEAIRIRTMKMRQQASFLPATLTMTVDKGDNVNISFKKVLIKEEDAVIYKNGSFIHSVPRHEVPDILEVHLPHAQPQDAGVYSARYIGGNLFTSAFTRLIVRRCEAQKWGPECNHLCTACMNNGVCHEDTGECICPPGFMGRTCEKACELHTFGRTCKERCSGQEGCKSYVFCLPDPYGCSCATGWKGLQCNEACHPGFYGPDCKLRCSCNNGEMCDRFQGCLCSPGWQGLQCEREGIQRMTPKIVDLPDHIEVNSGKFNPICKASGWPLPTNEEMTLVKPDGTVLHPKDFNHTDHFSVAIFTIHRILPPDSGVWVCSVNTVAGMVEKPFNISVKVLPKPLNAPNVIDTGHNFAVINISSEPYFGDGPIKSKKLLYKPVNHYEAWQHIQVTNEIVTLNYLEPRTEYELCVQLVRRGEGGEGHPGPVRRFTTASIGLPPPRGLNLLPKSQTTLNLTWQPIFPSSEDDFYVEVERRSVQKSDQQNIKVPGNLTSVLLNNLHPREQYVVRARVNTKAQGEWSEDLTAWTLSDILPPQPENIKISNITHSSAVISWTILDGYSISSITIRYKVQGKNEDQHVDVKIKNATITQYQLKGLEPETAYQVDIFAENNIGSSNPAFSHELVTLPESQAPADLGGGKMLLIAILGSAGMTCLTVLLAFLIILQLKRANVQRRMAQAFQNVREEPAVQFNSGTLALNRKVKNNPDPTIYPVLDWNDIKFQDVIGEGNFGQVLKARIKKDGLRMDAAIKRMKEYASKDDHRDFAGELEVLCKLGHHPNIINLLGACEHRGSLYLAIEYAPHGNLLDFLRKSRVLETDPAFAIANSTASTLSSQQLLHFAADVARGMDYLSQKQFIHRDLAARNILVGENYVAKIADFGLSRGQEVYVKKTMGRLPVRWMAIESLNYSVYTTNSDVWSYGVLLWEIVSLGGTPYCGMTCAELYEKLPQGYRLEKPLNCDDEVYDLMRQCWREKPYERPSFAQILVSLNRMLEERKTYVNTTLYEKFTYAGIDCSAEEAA

As to FAKLAARLYRKALARQLGVAA [MMI-0300], the “% activity” value with Mer(h) was 52%; in the assay with GSK3α(h) it was 157%; in the assay with PRAK(h) it was 128%; with LOK(h), 37%; with Hck(h) activated, 82%; with cKit(D816H)(h), 126%. The “% activity” value in the assay with Tie2(Y897S)(h) is listed as 83%.

Consider “HRRIKAWLKKIKALARQLGVAA (Mammal) [MMI-0500]”, for which the “% activity” value in the assay with Mer(h) was found to be 17%; with GSK3α(h) it was 175%; with PRAK(h) it was 95%; in the assay with LOK(h), 7%; in the assay with Hck(h) activated, 67%; with cKit(D816H)(h) it was 194%. Moreover, in the assay with Tie2(Y897S)(h), the “% activity” value came out at 80%.

For the sequence KAFAKLAARLYRKALARQLGVAA [MMI-0400], the “% activity” value is given as 50% in the assay with Mer(h); 164% in the assay with GSK3α(h); 118% with PRAK(h); 18% in the assay with LOK(h); 81% with Hck(h) activated; 143% with cKit(D816H)(h). Further, the “% activity” value in the assay with Tie2(Y897S)(h) is 87%.

With YARAAARQARAKALARQLGVAA [MMI-0100], the “% activity” value at Mer(h) is recorded as 47%; at PRAK(h), 159%; at LOK(h), 37%; at cKit(D816H)(h), 79%; at Tie2(Y897S)(h), 99%.

For the sequence “YARAAARQARAKALNRQLGVA (Mammal) [MMI-0200]”, the “% activity” value with Mer(h) worked out at 90%; in the assay with LOK(h), 67%; with Hck(h) activated it was 100%; with Tie2(Y897S)(h), 85%.
